According to patent US20240109974A1 (SHANDONG SIMCERE BIOPHARMACEUTICAL, published 2024):

T1: human TNFR2 on the surface of CHO-TNFR2 cells (human, UniProt P20333 23-461)
T1 construct: whole, on cells
T1 sequence (looked up): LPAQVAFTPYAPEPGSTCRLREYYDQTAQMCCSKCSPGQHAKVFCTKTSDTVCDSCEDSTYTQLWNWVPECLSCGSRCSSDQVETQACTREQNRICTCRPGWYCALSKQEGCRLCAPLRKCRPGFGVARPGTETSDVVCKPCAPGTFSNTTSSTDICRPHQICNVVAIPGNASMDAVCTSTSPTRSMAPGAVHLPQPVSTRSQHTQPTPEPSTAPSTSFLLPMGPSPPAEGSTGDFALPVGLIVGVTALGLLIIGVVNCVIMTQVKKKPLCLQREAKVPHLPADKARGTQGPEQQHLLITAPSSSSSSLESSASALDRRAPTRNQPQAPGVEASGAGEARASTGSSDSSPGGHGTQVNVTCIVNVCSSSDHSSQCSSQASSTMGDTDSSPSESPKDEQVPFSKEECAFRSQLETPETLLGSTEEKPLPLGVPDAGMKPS

T2: Cynomolgus TNFR2-His (Sino 90102-C08H) (cynomolgus monkey, UniProt A0A2K5VET2 132-366)
T2 construct: Bought protein; also called cynomolgus monkey TNFR2; recombinant cynomolgus monkey TNFR2 protein; not shown: His tag
T2 sequence: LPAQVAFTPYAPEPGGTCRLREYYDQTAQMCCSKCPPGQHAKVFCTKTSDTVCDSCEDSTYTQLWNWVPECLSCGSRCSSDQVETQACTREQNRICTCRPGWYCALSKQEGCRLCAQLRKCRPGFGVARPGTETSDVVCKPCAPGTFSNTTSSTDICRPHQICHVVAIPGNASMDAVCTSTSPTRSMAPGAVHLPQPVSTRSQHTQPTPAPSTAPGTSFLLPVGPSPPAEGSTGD


How the values were obtained:
[1] = biological target: T1, human TNFR2 on the surface of CHO-TNFR2 …; assay: flow cytometry on CHO-TNFR2 cells; EC50 against 224-WT
Experimental: (§1) The transfected full-length plasmid of human TNFR2 was purchased from Sino Biological (Cat #HG10417-UT, NCBI Ref Seq: NM_001066.2). The experiment was conducted at a cell density within 80%. The cell medium was discarded; the cells were rinsed with PBS, and digested with 1 ml trypsin for 2 minutes; the digestion was stopped with a Ham's F12 complete medium containing 10% FBS, and then a cell suspension was made. The cell suspension was counted, and then an appropriate amount of cell suspension was centrifuged at 350×g; the supernatant was discarded; a corresponding volume of blocking solution (10% FBS+PBS) at a density of 1×10⁷ cells/ml was added to resuspend the cells, and the mixture was incubated at 4° C. for 30 minutes. After the incubation, the mixture was centrifuged at 350×g to remove the supernatant, and the cells were resuspended in a staining buffer (2% FBS+PBS) to a density of 2×10⁶ cells/ml, and spread onto a 96-well plate, with 50 μl of cell suspension added to each well for later use. The antibody was diluted with PBS for 10-fold gradient dilution from the highest concentration of 20 μg/m (twice the concentration); the diluted antibody was added to the well containing 50 μl of cell suspension, and placed on a microplate shaker for shaking at 500 rpm for 1 minute, so that the antibody was fully mixed with the cells; the mixture was incubated at 4° C. for 1 h. After the incubation, the cells were washed twice with the staining buffer, with 100 μl per well, and centrifuged at 350-g for 5 minutes, and the supernatant was discarded. The PE goat anti-Human IgG Fc antibody (ebioscience, Cat #12-4998-82) was diluted 250-fold with the staining buffer, with a volume of 100 μl per well added to the washed cell wells; the mixture was mixed evenly, and stained at 4° C. for 30 minutes. After the staining, similarly, the cells were washed twice with the staining buffer; finally, the cells were resuspended in 200 μl of staining buffer; signals were detected by a flow cytometer (Thermo Attune NxT). The stronger the signal, the stronger the binding ability of an antibody to TNFR2. The binding curve of an antibody was drawn with antibody concentration as the abscissa and corresponding mean fluorescence intensity (MFI) fold as the ordinate, and fitted with four parameters (GraphPad Prism9) to calculate the EC50 value.

[2] = biological target: T2, Cynomolgus TNFR2-His (Sino 90102-C08H); assay: ELISA, cynomolgus TNFR2-His coated; EC50 against 224-WT
Experimental: The test humanized antibody against TNFR2 (as described in Example 1, the antibody was comprised of variable regions linked to IgG-Fc; the WT chimeric antibody also adopted the IgG-Fc structure) was subjected to 3.33-fold gradient dilution, loaded with 100 μl/well, and incubated with shaking at room temperature for 1.5 hours. The plate was washed, and then a working solution of murine anti-human IgG Fc-HRP (diluted at 1:10000) was added, loaded with 100 μl/well, and incubated with shaking at room temperature for 1.0 hour. The plate was washed again, and then the substrate TMB of HRP was added to develop colour. A stop solution was added to stop the reaction, and then a microplate reader (MD 13) was used to read the absorbance value. The binding curve of an antibody was drawn with antibody concentration as the abscissa and corresponding OD value as the ordinate, and fitted with four parameters (GraphPad Prism9) to calculate the EC50 value. The smaller the EC50 value, the stronger the binding ability of an antibody to human/cynomolgus monkey TNFR2. The binding effect of a humanized antibody was normalized to its corresponding human-murine chimeric antibody WT (see SEQ ID NOs: 38-43 for the sequence). The higher the percentage value, the better the binding effect of the humanized antibody. The results of binding of an anti-TNFR2 antibody to a human TNFR2 protein are shown in FIG. 1 and Table 4, and the results of binding of an anti-TNFR2 antibody to cynomolgus monkey TNFR2 are shown in FIG. 2 and Table 4.

[3] = biological target: T1, human TNFR2 on the surface of CHO-TNFR2 …; assay: flow cytometry on CHO-TNFR2 cells; AUC against 224-WT
Experimental: as §1

| Binder | % Relative activity (WT antibody/test antibody) [1] [%] | % Relative activity (WT antibody/test antibody) [2] [%] | % Relative activity (Test antibody/WT antibody) [3] [%] |
| --- | --- | --- | --- |
| 224-Hu1 (antibody, V domains shown, Humanized form of #224; also called VH8 + VL6) VH: QVQLVQSGAEVKKPGASVKVSCKASGFNNKDIYMHWVRQAPGQGLEWIGRIDPATGNTKHDPKFQDRVTMTSDTSTNTVYMELSSLRSEDTAVYYCARSPYGDFGAMDYWGQGTLVTVSS VL: DIQMTQSPSSLSASVGDRVTITCTASSSVSSNYLHWYQQKPGKAPKLWIYSTSNLPSGVPSRFSGSGSGTDFTLTISSLQPEDFATYYCHQYHRSPWTFGQGTKVEIK | 94.5 | 105 | 96.2 |
| 224-Hu6 (antibody, V domains shown, Humanized form of #224; also called VH8 + VL7) VH: QVQLVQSGAEVKKPGASVKVSCKASGFNNKDIYMHWVRQAPGQGLEWIGRIDPATGNTKHDPKFQDRVTMTSDTSTNTVYMELSSLRSEDTAVYYCARSPYGDFGAMDYWGQGTLVTVSS VL: DIQMTQSPSSLSASVGDRVTITCTASSSVSSNYLHWYQQKPGSSPKLWIYSTSNLPSGVPSRFSGSGSGTDFTLTISSLQPEDFATYYCHQYHRSPWTFGQGTKVEIK | 139 | 104 | 90.4 |
| 224-Hu7 (antibody, V domains shown, Humanized form of #224; also called VH9 + VL10) VH: QVQLVQSGSELKKPGASVKVSCKASGFNNKDIYMHWVRQAPGQGLEWMGRIDPATGNTKHDPKFQDKAVLSSDTSVSTAYLQISSLKAEDTAVYYCARSPYGDFGAMDYWGQGTLVTVSS VL: DIQMTQSPSSLSASVGDRVTITCTASSSVSSNYLHWYQQKPGKAPKLLIYSTSNLPSGVPSRFSGSGSGTDFTLTISSLQPEDFATYYCHQYHRSPWTFGQGTKVEIK | 140 | 116 | 91 |
| 224-Hu2 (antibody, V domains shown, Humanized form of #224; also called VH9 + VL7) VH: QVQLVQSGSELKKPGASVKVSCKASGFNNKDIYMHWVRQAPGQGLEWMGRIDPATGNTKHDPKFQDKAVLSSDTSVSTAYLQISSLKAEDTAVYYCARSPYGDFGAMDYWGQGTLVTVSS VL: DIQMTQSPSSLSASVGDRVTITCTASSSVSSNYLHWYQQKPGSSPKLWIYSTSNLPSGVPSRFSGSGSGTDFTLTISSLQPEDFATYYCHQYHRSPWTFGQGTKVEIK | 119 | 109 | 101 |
| 224-Hu3 (antibody, V domains shown, Humanized form of #224; also called VH9 + VL8) VH: QVQLVQSGSELKKPGASVKVSCKASGFNNKDIYMHWVRQAPGQGLEWMGRIDPATGNTKHDPKFQDKAVLSSDTSVSTAYLQISSLKAEDTAVYYCARSPYGDFGAMDYWGQGTLVTVSS VL: DIQMTQSPSSLSASVGDRVTITCTASSSVSSNYLHWYQQKPGKAPKLLIYSTSNLPSGVPSRFSGSGSGTDFTLTISSLQAEDAATYYCHQYHRSPWTFGQGTKVEIK | 116 | 108 | 101 |
| 224-Hu4 (antibody, V domains shown, Humanized form of #224; also called VH9 + VL6) VH: QVQLVQSGSELKKPGASVKVSCKASGFNNKDIYMHWVRQAPGQGLEWMGRIDPATGNTKHDPKFQDKAVLSSDTSVSTAYLQISSLKAEDTAVYYCARSPYGDFGAMDYWGQGTLVTVSS VL: DIQMTQSPSSLSASVGDRVTITCTASSSVSSNYLHWYQQKPGKAPKLWIYSTSNLPSGVPSRFSGSGSGTDFTLTISSLQPEDFATYYCHQYHRSPWTFGQGTKVEIK | 131 | 108 | 93.1 |
| 224-Hu5 (antibody, V domains shown, Humanized form of #224; also called VH9 + VL9) VH: QVQLVQSGSELKKPGASVKVSCKASGFNNKDIYMHWVRQAPGQGLEWMGRIDPATGNTKHDPKFQDKAVLSSDTSVSTAYLQISSLKAEDTAVYYCARSPYGDFGAMDYWGQGTLVTVSS VL: DIQMTQSPSSLSASVGDRVTITCTASSSVSSNYLHWYQQKPGKAPKLLIYSTSNLPSGVPSRFSGSGSGTDYSLTISSLQPEDFATYYCHQYHRSPWTFGQGTKVEIK | 112 | 106 | 88.9 |
